Results as given in PMC9491710 (Science Advances, 2022).

Experiments:
crystal structure [1] = biological target: the molecule itself; assay: crystal structure
crystal structure [2] = biological target: the molecule itself; assay: crystal structure; remark: listed apart in the source
cryo-EM structure = biological target: the molecule itself; assay: cryo-EM structure
crystal structure [3] = biological target: the molecule itself; assay: crystal structure; remark: listed apart in the source

B1: isolated KS3 domain (amino acids 532 to 1135 of BBR47_39880) (domain or fragment, UniProt C0ZGQ6 532-1135, looked up)
chain: SPSSVVRDVAIIGLSGRYPQAKNVDEFWNRLKEGKNCISEIPKDRWDWQSFFDEEKGKKESMYTKWGGFIDDMDKFDPLFFQISPKEAEEMDPQERLFLQEAYASIEDAGYTPTTLCESRKVGVFVGVMNGNYPTGATYWSIANRLSYLLNFQGPSVAVDTACSASLTAIHFALESLYSGTSECAIAGGVNLIVDPVHYMKLSALTMLSPSNQCKSFGDQADGFVDGEGVGAIVLKPLDKAIADGDHIYGVIKGSMMNAGGKTNGYTVPNPQAQAQLVADALQRANVHARTVSYLEAHGTGTELGDPIEVAGLTRAFEKDTQDKQFCALGSAKSNIGHCESAAGIAGVTKILLQLKHAQLVPSLHSRTLNPNIDFTKTPFVVQQELAEWRRPIVEINGTTNEYPRIAGISSFGAGGSNAHVIIEEYIPEEQKQSSLKITPQNPAIFVLSAKNAERLYEIVQQLLAFIQEHSLSDEHLADMAYTLQVGRVAMEERIAVIAGTMKELQQKLTAYVKGQEHIADLYRGQVNRNQEMLDILTSDDELEETIARWMERGKYSKLLDLWVKGLSIDWNKLYQEEQPGRISLPTYPFAKESYWTHARSVSS
stoichiometry N (crystal structure [1]): 2

B2: isolated DH3 domain (amino acids 1135 to 1434 of BBR47_39880) (domain or fragment, UniProt C0ZGQ6 1135-1434, looked up)
chain: SSTGVGVIHPFLHQNTSDFMEQRFSSMFTGQEFFLSDHVIKGQRVLPSAAYLEMARAAIQQATGGLDSERELEGLRFKNVVWTQPLAVGPEPVQAHIELYPEANGEIVFEIYSDSKQDRDQTTEIVHSQGSAVLCSIPDIPSFDLSVLQEQCSLRTLSAEQCYDAFKKMGVDYGPAHRGIEQILIGQEQVLAKLSLPSSVVKTQGQFGLHPSLLDAALQSSLGLMMATSDFSLILPFALEEMVIVGDCSSSMWALIRYREGSKAGDRVEKFDIDLCDENGNVQVRMKGFSTRKIANVSVR
stoichiometry N (crystal structure [2]): 2

B3: K3DAK4 bimodule core (KS3-DH3-ACP-KS4 fragment of BBR47_39880, amino acids 532 to 2220) (domain or fragment, UniProt C0ZGQ6 532-2220, looked up)
chain: SPSSVVRDVAIIGLSGRYPQAKNVDEFWNRLKEGKNCISEIPKDRWDWQSFFDEEKGKKESMYTKWGGFIDDMDKFDPLFFQISPKEAEEMDPQERLFLQEAYASIEDAGYTPTTLCESRKVGVFVGVMNGNYPTGATYWSIANRLSYLLNFQGPSVAVDTACSASLTAIHFALESLYSGTSECAIAGGVNLIVDPVHYMKLSALTMLSPSNQCKSFGDQADGFVDGEGVGAIVLKPLDKAIADGDHIYGVIKGSMMNAGGKTNGYTVPNPQAQAQLVADALQRANVHARTVSYLEAHGTGTELGDPIEVAGLTRAFEKDTQDKQFCALGSAKSNIGHCESAAGIAGVTKILLQLKHAQLVPSLHSRTLNPNIDFTKTPFVVQQELAEWRRPIVEINGTTNEYPRIAGISSFGAGGSNAHVIIEEYIPEEQKQSSLKITPQNPAIFVLSAKNAERLYEIVQQLLAFIQEHSLSDEHLADMAYTLQVGRVAMEERIAVIAGTMKELQQKLTAYVKGQEHIADLYRGQVNRNQEMLDILTSDDELEETIARWMERGKYSKLLDLWVKGLSIDWNKLYQEEQPGRISLPTYPFAKESYWTHARSVSSSTGVGVIHPFLHQNTSDFMEQRFSSMFTGQEFFLSDHVIKGQRVLPSAAYLEMARAAIQQATGGLDSERELEGLRFKNVVWTQPLAVGPEPVQAHIELYPEANGEIVFEIYSDSKQDRDQTTEIVHSQGSAVLCSIPDIPSFDLSVLQEQCSLRTLSAEQCYDAFKKMGVDYGPAHRGIEQILIGQEQVLAKLSLPSSVVKTQGQFGLHPSLLDAALQSSLGLMMATSDFSLILPFALEEMVIVGDCSSSMWALIRYREGSKAGDRVEKFDIDLCDENGNVQVRMKGFSTRKIANVSVRSEVEVPKASVPLEEEKAIDSSSLMEQATPYFKKLLSSVIKLPANKMEADASLEKYGVDSIVAMQMTKELEKQFGSLPKTLFFEYQTIKELTGYFLENYRENLMHILGMRENAEASLTQESEATMVDEVKAQTERRSKKRKSQRFASLRMETQPPKGALDIAIIGISGRYPQARNIHDFWKNLRDGKDCITEIPKDRWDHSLYFDEAKDKLGKSYSKWGGFIDGVDQFDPLFFHISPREAELMDPQERLFLQCVYETIEDAGYTRETLGKHEGLGGNVGVYVGVMYEEYQLYASAEQALGRALAIAGSPASIANRVSYFCNFHGPSMAVDTMCSSSLTGIHLACHSLQRGECEVAIAGGVNVSIHPNKYLYLSQGKFASSKGRCESFGEGGDGYVPGEGVGAVLLKPLARAIADGDHIYGVIKGSAINHGGKTNGYTVPNPHSQSRVIRRAFEEAGIHPRTVSYIEAHGTGTSLGDPIEIAGLTKTFQEYTKENQFCAIGSAKSNIGHGESAAGIAGLTKILLQMKYKRLVPSLHSRTLNPNIDFSKTPFVVQQELAEWKRPVIEIDGVTREYARIAGISSFGAGGANAHLVIEEYIEAEHRPPSSISSKNPAVIVLSAKNKDRLREQVQRLLSAIREQVLTDNDLAEIAYTLQVGREAMEERFAVIVKSISELEAKLTYYLKDEADSPDLFTGQVKRNKETMDVFAADEDLQQAIDTWITKGKYAKILQMWVQGLIFDWNKLYGDTKPRRISLPAYPFARERYWLPKVESQAIGLTAGEPAYLHPL
stoichiometry N (cryo-EM structure): 2

B4: isolated KS4 domain (amino acids 1587 to 2220 of BBR47_39880) (domain or fragment, UniProt C0ZGQ6 1587-2220, looked up)
chain: PPKGALDIAIIGISGRYPQARNIHDFWKNLRDGKDCITEIPKDRWDHSLYFDEAKDKLGKSYSKWGGFIDGVDQFDPLFFHISPREAELMDPQERLFLQCVYETIEDAGYTRETLGKHEGLGGNVGVYVGVMYEEYQLYASAEQALGRALAIAGSPASIANRVSYFCNFHGPSMAVDTMCSSSLTGIHLACHSLQRGECEVAIAGGVNVSIHPNKYLYLSQGKFASSKGRCESFGEGGDGYVPGEGVGAVLLKPLARAIADGDHIYGVIKGSAINHGGKTNGYTVPNPHSQSRVIRRAFEEAGIHPRTVSYIEAHGTGTSLGDPIEIAGLTKTFQEYTKENQFCAIGSAKSNIGHGESAAGIAGLTKILLQMKYKRLVPSLHSRTLNPNIDFSKTPFVVQQELAEWKRPVIEIDGVTREYARIAGISSFGAGGANAHLVIEEYIEAEHRPPSSISSKNPAVIVLSAKNKDRLREQVQRLLSAIREQVLTDNDLAEIAYTLQVGREAMEERFAVIVKSISELEAKLTYYLKDEADSPDLFTGQVKRNKETMDVFAADEDLQQAIDTWITKGKYAKILQMWVQGLIFDWNKLYGDTKPRRISLPAYPFARERYWLPKVESQAIGLTAGEPAYLHPL
stoichiometry N (crystal structure [3]): 2
